In a protein production outcome set (Wang et al. 2014):

Experiment: label from the status in PepcDB records
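Also: failed if final PepcDB status was selected cloned or expressed and not failed if soluble or beyond.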

Row | Sequence | protein production
1 | MENKYLVSIIVPVHNTADYLHKCIESLRSQTLQQIEIILVDNLSVDGSSEICDEYAKIDKRIKVLHLSIAGLSIARNAGMRIASAPYIGFVDSDDYVEPAMFEKMLDAMVQSDAEIAYCNFLLEYEFKPNESPYRNSGDIVIRDPKNVLQDMMMEKVSCSACTKLYKSGFLTSLQFPEGKNYEDRLVMYEWVALCKKVVWVDSPFYHYVERQTSICHTMSPMNLYHYFLAEYARMRFMEKYSLFEEEDLFKIRTRLIGTCLTIFKEILLKVNLREFKEPVKDMRQKMKEIAALPEDTYELKYRRRVRKIAYHWHLYYLTHFLFKKGGDSLEHHHHHH | failed
2 | MRPCCHWRPGPSGCHCCAGCGLAAEARRARERRGEAVIGLCGALAGEVRAGRQPGEALLHAAGDSGGLGDAQAAVLAAARFGGDVPGALADAAGQPGAEGLLGLGACWRVAVDRGAGLAAGLDRLEAALRAERDQRAELRAQLAGARSTAVMLAALPVLGLLLGTALGADPLHVVLHTGAGLACLLAGAVLEGAGLWWALRIVRGAEAA | failed
3 | MSYRGLPAMTRNDLTIYDDVAAQWWSDDIRWVRTLKAMVPGRLAFFDRKIDWRDKRVLDLGCAGGFMAEALCERGAIVTGIDPAAQAIDAAREHAELDGHDIRYDVGKGETLPYADDSFDAVVCVDVLEHVEDLDLVLSEVARTLVPGGMFFFDTINRNPLARFATITMAEDILRLLPKGTHDPDMFIKPGELHAALGRAGFVPGR | failed
4 | MHGLLPALKRGFKRWIGWRRLGIAASVFIIAFAITTLVRTLKGIDTGVILTALTEIPRGNIGLAAICVFFAFCTLTFYDFFALRTIGKKHVPYRIAALSSFTSYSIGHNIGATVFTGGAIRFRIYSDYGLNAIDVAKICFLSGLTFWLGNIFVLSIGMAVHPDAASSMDQLPSSINRLIALGGLASIGAYLVWLCMGEKRRELGQKGWKVVLPSAPLTLVQILIGVVDLGFCATAMYLLIPATPPIDFLSLAVVFILATLLGFASHAPGSIGVFDAAMLVALPEFGREQLLATLLVFRLLYFVIPFGLAISIMGTRELWMNVVEPWQERRRLAEACAQANLPKQVAAMERERSLRQASKR | failed
5 | MIQVGDRFYDQAIVQTMGARAAEAVGLSDRPELSFAVCLSDPAEFLALLLAIREAGASVLPIHPSTPRAAARRLAIDLGCHRLVTDELAVEDLGAEDPGPGGLLQTTSGTTGEPKRIARSWAEIDREIDSYVATFVAPQDMTPLIACPITHSYGLICGVLVALRRGQVPHILGTANPKYLIARLRQTRQPLLYSSPAMLHAIARLLPAGEMIHAAMTSGTLLPDQWLMTIRARTTHLFQQYGCSEAGCVAINPNLSASGDMGAPLPHLRVEAGDTDQPREIVVHVGDRAIRTADLGYTKADGTLVFVGRLDDTINVSGLNVYPKEVEDVVMAMPGVTDAVVFRRLDSLAGERVAVAFSAEHSIAPADLRDWCIKNLAAHQVPMETVRLPRLPRQANGKISRREIAALHAEGRLELLAEETAA | failed
6 | MNFNQFENQNFFNGNPSDTFKDLGKQVFNYFSTPSFVTNIYETDELYYLEAELAGVNKEDISIDFNNNTLTIQATRSAKYKSEQLILDERNFESLMRQFDFEAVDKQHITASFENGLLTITLPKIKPSNETTSSTSIPIS | failed
7 | MIVEERIYRIRGGKMQEYLKLVREEGIAIQAPILGNLIGYFVTDIGPLSQVIHMWGYASLDDRAERRGKLAEDQRWQAFIPRLSVLIESSENRILLPTDFSPLR | not failed
8 | MYVTKRLSEYKRNPSELTLLPTEGPNSGVLVIQDEESRPTLKCCFVNSFDWELNGLPFPQNTRVIVKRQIGTALYLDPVAFIPVLHQPPSSNLYYVIRGSGKHTGEACVSAKEGDRASCCFCFTYIPEAVPRPLDPFDINQQFEIHQGRSSTKKFFATSVASDGIPPQFLTRKGWSVIFSAPEVEDYGLIDDAKGIVDAKLRYELPDLDNSVVVGKWYVPFLFVKEGDAKDQMYKSMYYSMTLQQRFEEVFFCENVGNNKRFEVVVDVEVETEVVKLEGERIARETQGVNSDGVVWFNASGNEKIGLGSVVLERMKWEEERFGWLNKGYEQRSSIKRTERFEGGGPYWKSYRCYVLVETFELKRTDGSLVLTYEFKHVDKLKSKWD | failed
9 | MTTMQQRYDAVKDAMAQIGRLAAQLDGEALREAIGPVLVALGERDELFPRDEFPIRAGKPGGLYQLWRGESGDLALYASAGKTGKKQPPHDHTTWAVIAGVYGEEHNVFFERTDDGSRAGFGTLRQIDALTVVQGNAARLSGEVFHTIEVVSEEDSLHLHLHLYGRALDTLSGRINFATEEGGAYTRFMAVPETYAPWIAPRDLYEMLTDGGELAILDVRENGVYTQGHLFHAASMPLSVFELRVDDGLPSPHVRIVVIDDADGLAEQAVRLLHQRGYHNVAVLQGGQPGWNAAGLPVYTGVFVPSKAFGEVAEHVYGTPSISAVELDALRRSEEVLVLDSRTEQEFNLMSVPGAYSCPGAELVARALDHAGPIVVNCAGRTRSIIGAQSLRNAGKTDVRALENGTMGQHLAGLPLERGKSASYLDRPVAAGAAQAAQAWALGMSIATLDAGELHDMLSNPYRTTYLFDARDPSCSSRATLPRAVAAPGGQLVQQTDYYAPVRNARIVVFDTDGVQAPMTAGWLHQMGWEVYLHRPEATALVAPPRVEYDDERGVPVEAVAADAVIIDVGDSRTYRAGHLAGAAWAPRSRLPALLAQRKPAGPLLFTCADGRVSRLAAADAAAQGYQAAYLKGGTAALGADRLRGDAPQFLTEAIDVWYRPYDRETGIEEAMHQYLSWETGLLDKVRSDPTVAFRI | failed
10 | MFHLIRWQDIADIIIMSFLAYRLYSWFRHTRAMQVLIGLGILAGVYFVTRNLGLFMTSWILQELGTVLFVLIIVVFQAEIRQALYRFSLLRTFIGRQEGGGELDLAELGRTVFGLARERTGALIVLQRQEALDDYLLHGVKVDGLPSSHLLGSIFRNGTPLHDGAVIIKDGRVSQASCHLPLSMKTELPQNFGTRHRAGIGLSERSDAVVIIVSEERGEVGMALAGEYRKIASPEEFAEVIQGLLYPQRPENVAFTLRQRLLRNLVPKIVTTLIVIAGWLVVTTKEGGIFTVTVPIKFHNLPPRSVLVKSVPESVEVQLKVFTSLIPSPRQLDLVADLNLAGVHDGVNSLAVKDDDLNLPLGVVVTGINPPMVKVTIAGKERKQLRVRPKLTGQLPGRAKLRSVTADPDTVVVEGPGHLLEGLESLPTETVDLAGLRRGGVVERRVVSPSPQIRVLRDEPVRVVVVTSVK | failed
11 | MRDLLNDLSEGLSHPDPILRAQIQMQKPLPKRFYKDVTVADVEEGGFTILLDGKPLRTPAKKPLVAPSRALADLLRDEWDAQKEVVNPVVMPVSRHVNTAIDGIASDTQAVFEDILRFSSSDLLCYRAGDPEALVARQTDYWDPVLDWATNVLGARFILVEGVMHRDQPREAIAAFAVTLKKYDTPIALAALHTMTSLTGSAILALALAEGELTLEEAWALAHLDEDWTAEQWGEDEEALERRAVRLIDMRAALNVLESLKSAS | not failed
12 | MGAIEDIYEDLETDVPEEEFREAVEEKVEQMGGLADEETAAMLLAHELNENEVNAIADIEPGMDEVKFLAKVMAIGDLKTFERDDEDEDGRVINVEAADESGSLRLAFWDGQAVDIDEGKLEVGDVLRVKGRPKDGYNGLEVSVDKAEPDEDATIDVEPGAGSSIDALTMGQSDVTLRGLVLDTDSIRTFDRDDGSEGRVSNLTLGDETGRIRVTLWDDRADRADELDAGAAVEIIDGYVRERDGSLELHVGDQGAVDEVEDDVAFEPDADPIAEVELEETADIAGVVRSADPKRTFDRDDGSEGQVRNVRIQDATGDIRVALWGDKADKDIAPGDEVLAADVEIQDGWQDDKEASASWNSTIVVLDDGADLATGGAGGGASAETTDAEHAGLSSFGDEGDDTDADSSGNEAAAVSAGTGDTSPDGGAQSAGQQVEFTGTVVQTGDPVVLDDGEQTMSVETGERVQLGQEITVRGELRDDRLHAEDVFLEHHHHHH | failed
13 | MEMTKVTGKFDVKLTPENAYATGVGGVNLGRMALDKTFYGELEARSQGEMLSAMTAVKGSAGYVAIEQVVGKLCGRQGSFVLQHFGIMTDGQNRLHLEVVPHSGAGELTGLYGTMAISIENGQHFYEFSFCFEPASEVEG | not failed
14 | MKVRAIKSFLVTTMAMTFLVSMGQGSILTKANTINNMKYVTEAFGAIPTEEQVSYQKEELTAFIHFGVNTFTGREWGDGTENPEIFNPTNLDADQWVKTLADAGFGRVILTAKHHDGFCLWDSAYTKHDVASSPWKNGKGDVVKEVSEACAKYNIKFGVYLSPWDQNSEHYGEGNGGDYNEFYMNQLRELLTNYGPIAEVWMDGAKGSNVKQEYNFEEWFALIKELQPECLIFSPQGPDIRWIGNEKGYAGEPCWSTIDIEKMKERENPTYLNNGEEGGPDWVVGESDVSIRPGWFYHESQDNEVKSLEKMMDIYFKSIGRNSVLLLNVPPNKEGKLHENDVNRLKEFGETIKELFNDDLALNKEVIVDGFANRDETYGANKIVDGDYDTYWAPDNSSKTGTIEIDLGESKEFDVISLQEYIPLGQRVSSFNVEVLQGENWNKVYEGKTIGYKRLVRIAPTKGEKIRINITGSLEVPLINNVGVYKQPTSIELPSGPPAGLKVLNDDNKGNELEQFNFSDGWVYETIHGENDLGGDAHYTSKTNATVNIKFNGTKFFLSGTKDSGHGIMEISIDGENPVEVDLYSPNRKSKEIVFESEDLSDGEHEVTVKCTGRKNSSSRGTAAHIDGAYVLDNGGKGMVEFEKVGYEVSENIGTATFKVIRKGGSNGKLEVNYDTLAGTALNGVDYQTWSGTLAFNEGETEKTFDITIIDDKEKEEPKEFYLKLSDPIGGILGFNSRATVTINDDEQIK | failed
15 | MGLLDHLWDDTVAGPRPENGLGKLRKHHTFSFRPSSGNDQSEAGSARSYGEDSLPEEAVKVTRSIMIIKPPGYQGSSAPASPAGSTPPLSPFSPPLSPFSANAGGKEPFRFRRRSTSDAFEKAAGGSETGPRSSPPTYGM | failed
16 | MKISVIISNYNYARYLSRAINSVLAQTHSDIEIVIVDDGSTDNSRDVITQLQEQAPDKIKPIFQANQGQGGAFNAGFAAATGEVVAFLDADDVWKPHKLQRIVEVFQTSDVVGVMHHLDIIDGNDKTIDQASTQGPKLSEDLASVILQTGNAWCFPPTSGLAYRREVLEKVFPIDPVKWRIWADGCIIYCTAFLGKIKTLQENLAYYRIHGANNHMSAASATSEQEAKSQAGIEMTNQYINDFLVRIGYGARVDLSRNLQYRRTKYYQRSQWDLREVWGISRLILGWPFYSGQERAYYLARFLFKSGKFLLRSDVHTESTTI | failed
17 | TWILTADSPSLLGTVDVVTRYLFEQRCYVTEHHSFDDRLAQRFFIRVEFRAGDGFDEASFRAGLAERVAPFGMRTELTAPGYRSQVAIMVSKADHCLNDLLYRQRIGQLPMDVVAVISNHPDLEPLARWHGIPYHHFPLDPNDKPAQEARVWQVLEESGAELVILARYMQVLSPELCRRLDGWAINIHHSLLPGFKGAKPYHQAYQKGVKLVGATAHYINNDLDEGPIIAQGVETVDHAHYPEDLIAKGRDIECLTLARAVGYHIERRVFLNANRTVVL | failed
18 | MKKQYWWIIVTYILMQLSGVVGLPLLLKTGLYDNRGFTIEEKGQIITGHWAIISFFIALCIVLWLLRTDIRDRHLDPMRSSVPATIGWIFIGFFLAIISQSIAGMIEMYVFGVPRGSENTDRLLDIARTIPWFLIVVSIIGPILEEIVFRKILFGTLYKKFNFFIAAIISSLVFATIHFDFTHLLVYTAMGLVFAFLYVKTKRIIVPIAAHVAMNTLVAIGQIFMSNEQIQEMIKEAEKMQGFIGGFFV | failed
